# Test results reported in patent US20230038720A1.
# Target: TACE
# Test: cell-based or functional assay
row,Binder,TACE IC50 [µg/mL]
1,cyclo(GVCICRRRVCICGR) (disulfide (positions not given here); not fully specified (bridges)) [Peptide 1],0.858
2,cyclo(GVCACRRRFCACRR) (disulfide (positions not given here); not fully specified (bridges)) [Peptide 10],2.74
3,cyclo(GVCICRRRFCLCRR) (disulfide (positions not given here); not fully specified (bridges)) [Peptide 2],2.2
4,cyclo(GVCLCRRGVCLCRR) (disulfide (positions not given here); not fully specified (bridges)) [Peptide 3],1.15
5,cyclo(GVCICRRGVCICRR) (disulfide (positions not given here); not fully specified (bridges)) [Peptide 4],0.546
6,cyclo(GVCACARRFCACRR) (disulfide (positions not given here); not fully specified (bridges)) [Peptide 5],1.83
7,cyclo(GVCSCRRRFCICRR) (disulfide (positions not given here); not fully specified (bridges)) [Peptide 6],3.19
8,cyclo(GVCICRRRFCSCRR) (disulfide (positions not given here); not fully specified (bridges)) [Peptide 7],1.87
9,cyclo(GVCSCRRRFCLCRR) (disulfide (positions not given here); not fully specified (bridges)) [Peptide 8],2.61
10,cyclo(GACICRRRFCLCRR) (disulfide (positions not given here); not fully specified (bridges)) [Peptide 9],0.515
